± gives the standard deviation of the averaged measurements.

This series deals with ATP. Briefly: switch fluorescence ratio, 500 uM ATP over buffer (Cy3 cluster intensity, sum of 5 cycles each) (fold (ratio)); higher = stronger signal-on switching upon ATP binding; sequences stand for … in TCGTCGGCAGCGTCAGATGTGTATAAGAGACAGTTTTTTTTTTTTTTTTTTTTTTTTT…TC. The following applies: aptamer strand: ATP DNA aptamer (quencher-CACCTGGGGGAGTATTGCGGAGGAAGG + anchor), 100 nM annealed; ATP concentration: 500 uM. In a few lines:
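Imaging in selection buffer was followed by imaging after 15 min with 500 uM ATP at 22 °C, for Cy3-labelled switching-strand clusters annealed to 100 nM quencher-labelled ATP aptamer on a modified Illumina MiSeq flow-cell. Five of these buffer/ATP cycles ran, separated by NaOH stripping and re-annealing. The fluorescence ratio per cluster is summed target-cycle over summed buffer-cycle Cy3 intensity, averaged per switch-domain sequence; clusters outside 100-1000 RFU were removed.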
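Further: ATP exposure 15 min at 22 °C before imaging.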

Consider AATAGGATCG, for which the switch fluorescence ratio is 1.01 ± 0.045. Turning to AATAGGCTGG, the switch fluorescence ratio worked out at 1.03 ± 0.013. To AATAGGGACC belongs 1.07 ± 0.089. As for AATAGGGAGC, the switch fluorescence ratio was 0.997 ± 0.041. To AATAGGGATT belongs 0.984 ± 0.019. The same measure for AATAGGTGTT: 1.07 ± 0.015.

In the case of AATAGGTTTT, the switch fluorescence ratio was determined as 1.02 ± 0.011. In the case of AATAGTTGGA, the switch fluorescence ratio turned out to be 0.9846 ± 0.0064. The same measure for AATAGTTGGG: 1.03 ± 0.015; for AATATAAAGC: 1.012 ± 0.0028; for AATATATGCA: 0.991 ± 0.034. The same measure for AATATCAGGA: 1.026 ± 0.0083. The same measure for AATATGATTC: 0.992 ± 0.025. With AATATGCTTT, the switch fluorescence ratio was 1.006 ± 0.0048.

As to AATATGGAGC, the switch fluorescence ratio worked out at 1.08 ± 0.14.

Turning to AATATGGGT, the switch fluorescence ratio came to 1 ± 0.034. To AATATGGTTT belongs 0.966 ± 0.02.

AATATGTGGG: the switch fluorescence ratio was 0.975 ± 0.024.

In the case of AATATGTTCT, the switch fluorescence ratio was found to be 1.02 ± 0.014. To AATATTACAT belongs 1.03 ± 0.034; to AATATTACTA, 1.007 ± 0.0041; to AATATTCGTT, 0.997 ± 0.039. To AATATTGAAG belongs 1 ± 0.018.

Take AATATTGGTA: the switch fluorescence ratio turned out to be 1.01 ± 0.018. The same measure for AATCAAAAAT: 0.949 ± 0.043; for AATCAAATTA: 0.985 ± 0.025; for AATCAATTAA: 1.001 ± 0.0016. For the sequence AATCAATTTT, the switch fluorescence ratio was determined as 1.007 ± 0.0054. As to AATCAGTCTG, the switch fluorescence ratio worked out at 0.992 ± 0.013. The same measure for AATCATAGGG: 1.011 ± 0.0087; for AATCATATTA: 1.01 ± 0.049; for AATCATGGGG: 0.993 ± 0.041. The same measure for AATCCATGCG: 1.004 ± 0.0076. To AATCCATGGC belongs 0.98678 ± 6.8e-05.

Consider AATCCCGGGG, for which the switch fluorescence ratio is 1.19 ± 0.21.

Turning to AATCCGTTTT, the switch fluorescence ratio was determined as 1.04 ± 0.044.

Turning to AATCCTTAAT, the switch fluorescence ratio was determined as 1.007 ± 0.0051. The same measure for AATCCTTTTT: 1.004 ± 0.0084; for AATCGCACCA: 1.11 ± 0.025. Take AATCGCTAGC: the switch fluorescence ratio amounted to 1.02 ± 0.011.

As for AATCGCTCTT, the switch fluorescence ratio amounted to 1.007 ± 0.0062. To AATCGCTTGG belongs 0.9965 ± 0.006. The same measure for AATCGCTTTG: 1.014 ± 0.0029; for AATCGGCGTC: 1.08 ± 0.15; for AATCGGCTCA: 0.98074 ± 0.00017. The same measure for AATCGGGCCA: 0.987 ± 0.018; for AATCGGGGAT: 1 ± 0.012. For the sequence AATCGGGGGG, the switch fluorescence ratio stood at 0.974 ± 0.013.

For the sequence AATCGGGGTC, the switch fluorescence ratio was 1.01 ± 0.015.

Take AATCGGGTAG: the switch fluorescence ratio was determined as 1 ± 0.014.

Take AATCGGGTCA: the switch fluorescence ratio amounted to 0.985 ± 0.021. As for AATCGGTACT, the switch fluorescence ratio came out at 1.01 ± 0.038. Consider AATCGGTAGG, for which the switch fluorescence ratio was 1.01 ± 0.027.

In the case of AATCGTACGT, the switch fluorescence ratio is 0.959 ± 0.04. To AATCGTAGTG belongs 0.9895 ± 0.0071; to AATCGTATTC, 0.972 ± 0.011; to AATCGTGTAG, 1.04 ± 0.025. The same measure for AATCGTTTTT: 1.02 ± 0.12; for AATCTCATAA: 0.986 ± 0.034. To AATCTCTGGG belongs 0.992 ± 0.0015; to AATCTGGCTG, 0.991 ± 0.023. With AATCTGGGGT, the switch fluorescence ratio was determined as 1 ± 0.028. The same measure for AATCTTTGGA: 1 ± 0.013; for AATGAAAAAT: 0.989 ± 0.067; for AATGAAAATG: 0.9804 ± 0.0089.

Take AATGAAAGCG: the switch fluorescence ratio came to 1.01 ± 0.015. The same measure for AATGAGCGTT: 1.14 ± 0.16. The same measure for AATGAGTACG: 1.02 ± 0.059; for AATGATATCG: 1.03 ± 0.013. To AATGATGGGT belongs 0.985 ± 0.019. On to AATGCACAGA, for which the switch fluorescence ratio was 1.05 ± 0.045. The same measure for AATGCCTCTT: 1.013 ± 0.0028; for AATGCCTGCG: 1.02 ± 0.034; for AATGCGCCGT: 1.01 ± 0.022.

Turning to AATGCGTGCG, the switch fluorescence ratio was 1.04 ± 0.023. To AATGCTAAGA belongs 1.01 ± 0.044. To AATGCTGCGC belongs 1.03 ± 0.056. To AATGCTTCTC belongs 1.03. As to AATGGAGGGG, the switch fluorescence ratio was 0.978 ± 0.019.

The values are drawn from the supplement of paper PMC10126150.
